Data taken from IntAct's records for PubMed 31696227.

B1: Transcription factor ATOH7 (Homo sapiens), Q8N100 (parent)
chain: MKSCKPSGPPAGARVAPPCAGGTECAGTCAGAGRLESAARRRLAANARERRRMQGLNTAFDRLRRVVPQWGQDKKLSKYETLQMALSYIMALTRILAEAERFGSERDWVGLHCEHFGRDHYLPFPGAKLPGESELYSQRLFGFQPEPFQMAT
partner: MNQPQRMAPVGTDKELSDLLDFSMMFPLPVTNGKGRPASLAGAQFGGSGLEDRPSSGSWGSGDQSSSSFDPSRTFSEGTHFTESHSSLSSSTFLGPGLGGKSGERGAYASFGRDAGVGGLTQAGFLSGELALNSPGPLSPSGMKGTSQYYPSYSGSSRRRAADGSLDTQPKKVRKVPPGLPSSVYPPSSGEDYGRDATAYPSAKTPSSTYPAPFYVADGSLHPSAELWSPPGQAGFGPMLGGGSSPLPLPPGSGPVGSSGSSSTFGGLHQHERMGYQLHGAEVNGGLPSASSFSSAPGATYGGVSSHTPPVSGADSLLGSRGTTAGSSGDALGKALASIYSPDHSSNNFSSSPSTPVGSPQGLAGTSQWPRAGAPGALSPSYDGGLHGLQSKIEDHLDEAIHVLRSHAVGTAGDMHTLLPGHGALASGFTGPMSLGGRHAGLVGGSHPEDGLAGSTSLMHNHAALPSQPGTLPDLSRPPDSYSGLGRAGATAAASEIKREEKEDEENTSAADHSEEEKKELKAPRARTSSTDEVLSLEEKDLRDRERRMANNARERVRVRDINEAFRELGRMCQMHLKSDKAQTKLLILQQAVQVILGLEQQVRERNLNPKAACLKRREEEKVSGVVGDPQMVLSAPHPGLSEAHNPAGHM

Variants of: B1
Settings: with TCF3, P15923-2

Variant | effect of a mutation on the interaction
MKSCKPSGPPAGARVAPPCAGGTECAGTCAGAGRLESAARRRLAANARERRRMQGLNTGFDRLRRVVPQWGQDKKLSKYETLQMALSYIMALTRILAEAERFGSERDWVGLHCEHFGRDHYLPFPGAKLPGESELYSQRLFGFQPEPFQMAT | decreasing interaction strength
MKSCKPSGPPAGARVAPPCAGGTECAGTCAGAGRLESAARRRLAAHARERRRMQGLNTAFDRLRRVVPQWGQDKKLSKYETLQMALSYIMALTRILAEAERFGSERDWVGLHCEHFGRDHYLPFPGAKLPGESELYSQRLFGFQPEPFQMAT | disrupting interaction strength

Now from value to variant:

effect of a mutation on the interaction | Variant
disrupting interaction strength | MKSCKPSGPPAGARVAPPCAGGTECAGTCAGAGRLESAARRRLAANARERRRMQGLNTTFDRLRRVVPQWGQDKKLSKYETLQMALSYIMALTRILAEAERFGSERDWVGLHCEHFGRDHYLPFPGAKLPGESELYSQRLFGFQPEPFQMAT
disrupting interaction strength | MKSCKPSGPPAGARVAPPCAGGTECAGTCAGAGRLESAARRRLAANARERRRMQGLNTVFDRLRRVVPQWGQDKKLSKYETLQMALSYIMALTRILAEAERFGSERDWVGLHCEHFGRDHYLPFPGAKLPGESELYSQRLFGFQPEPFQMAT
